Data from patent publication US20040044182A1 (published 2004).

Target: T1, β2m (12 kDa non-polymorphic light chain) (human, UniProt P61769 21-119)
T1 construct: No recombinant β2m was added; It came from the human HEK293 cells and co-purified under native conditions; also called beta-2-microglobulin
Experiment: immunoblot of the purified protein with anti-β2m antibody (co-purification under native conditions)
Method: Human leukocyte antigens are heterodimeric molecules comprised of glycosylated heavy chains non-covalently associated with a 12 kDa non-polymorphic light chain called β2m. PurifiedrsHLA-G1 (10 to 100 ng) and rsHLA-G2 (10 to 1000 ng) were separated on 15% SDS-PAGE, transferred to nitrocellulose membranes and immuno-detected with anti-Flag M1 antibody or anti-β2m, as shown in FIG. 6. Only rsHLA-G1 was positive for β2m. […] To produce the immunoblot of FIG. 6, purified recombinant sHLA-G1 (10-100 ng) and purified recombinant sHLA-G2 (10-1000 ng) were separated using 15% PAGE-SDS and electrotransferred to nitrocellulose membranes. One blot was detected with anti-Flag-M1 antibody and the other with a mouse anti-β2m. This experiment provides evidence that sBLA-G2 is produced as free alpha chains, while sHLA-G1 is bound to β2m.

binding result: no binding (tested: up to 1 µg)
B1: recombinant soluble HLA-G2 (other)
MHC heavy: APLADYKDDDDKLAGSHSMRYFSAAVSRPGRGEPRFIAMGYVDDTQFVRFDSDSACPRMEPRAPWVEQEGPEYWEEETRNTKAHAQTDRMNLQTLRGYYNQSEANPPKTHVTHHPVFDYEATLRCWALGFYPAEIILTWQRDGEDQTQDVELVETRPAGDGTFQKWAAVVVPSGEEQRYTCHVQHEGLPEPLMLRWSKEGDGGIMSVRESRSLSEDL
modifications: glycosylated
notes: Secreted from HEK293 cells; The first amino acid of the α3 domain is asparagine, not aspartic acid as in sHLA-G1; Produced as free alpha chains; also called rsHLA-G2; sHLA-G2
